Measured values published in publication PMC10786891, “Massively parallel profiling of RNA-targeting CRISPR-Cas13d”.
Positions count from the first letter of the chain named. Numbers in names are those of the source.

T1: EsCas13d, nuclease-dead (Eubacterium siraeum, UniProt B0MS50, R295A;H300A;R849A;H854A)
T1 sequence: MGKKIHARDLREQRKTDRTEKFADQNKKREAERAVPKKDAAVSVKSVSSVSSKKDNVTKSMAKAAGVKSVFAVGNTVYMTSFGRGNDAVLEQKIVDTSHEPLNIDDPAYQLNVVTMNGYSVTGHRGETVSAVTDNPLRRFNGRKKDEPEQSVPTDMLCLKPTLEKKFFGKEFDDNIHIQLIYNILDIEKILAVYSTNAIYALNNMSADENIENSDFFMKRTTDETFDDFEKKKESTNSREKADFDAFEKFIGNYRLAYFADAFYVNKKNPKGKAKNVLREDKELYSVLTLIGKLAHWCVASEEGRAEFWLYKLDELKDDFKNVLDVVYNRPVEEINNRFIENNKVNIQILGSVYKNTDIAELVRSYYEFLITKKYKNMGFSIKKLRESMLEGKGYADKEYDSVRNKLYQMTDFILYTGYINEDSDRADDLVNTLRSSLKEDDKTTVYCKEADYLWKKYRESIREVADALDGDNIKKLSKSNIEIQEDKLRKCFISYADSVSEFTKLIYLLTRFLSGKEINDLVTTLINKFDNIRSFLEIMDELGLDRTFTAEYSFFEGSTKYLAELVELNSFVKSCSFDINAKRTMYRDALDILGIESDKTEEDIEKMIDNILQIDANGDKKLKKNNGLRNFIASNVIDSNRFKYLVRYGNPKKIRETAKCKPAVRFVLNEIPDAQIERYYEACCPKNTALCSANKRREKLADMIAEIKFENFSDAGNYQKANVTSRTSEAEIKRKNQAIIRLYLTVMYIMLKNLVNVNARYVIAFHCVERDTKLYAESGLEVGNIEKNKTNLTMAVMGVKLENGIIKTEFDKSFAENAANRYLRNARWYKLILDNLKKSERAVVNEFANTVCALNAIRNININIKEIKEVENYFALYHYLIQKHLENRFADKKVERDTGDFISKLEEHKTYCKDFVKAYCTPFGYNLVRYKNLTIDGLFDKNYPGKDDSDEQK

B1: target 1 U3G,G17U (mixed)
RNA 1: CACCCGUGCAAAAAUGCAGGGGUCUAAAACUGAGCGGAUAACCUCUCUAUGG
RNA 2: GGGAAUGGAUCCACAUCUACGAAUUCGUACCAUAUAGAGGUUAUCCGCGCACCGAGAUCGGAAGAGCACACGU
B2: target 1 insU 3' of 18,insC 3' of 12 (mixed)
RNA 1: B1 RNA 1
RNA 2: GGGAAUGGAUCCACAUCUACGAAUUCGUACCAUAUGAGAGGCUUAUCCGCUCACCGAGAUCGGAAGAGCACACGU
B3: target 1 del17,del18 (mixed)
RNA 1: B1 RNA 1
RNA 2: GGGAAUGGAUCCACAUCUACGAAUUCGUACCAUAGAGGUUAUCCGCUCACCGAGAUCGGAAGAGCACACGU
B4: target 1 A14G,U19G (mixed)
RNA 1: B1 RNA 1
RNA 2: B1 RNA 2 with U33G, U35G, A38G, G49U
B5: target 1 insU 3' of 20,insG 3' of 4 (mixed)
RNA 1: B1 RNA 1
RNA 2: B2 RNA 2 with A34U, U35A, C42U, U44A, A45U, U46C, C48G, G49C, C50G
B6: target 1 insG 3' of 14,insC 3' of 8 (mixed)
RNA 1: B1 RNA 1
RNA 2: B2 RNA 2 with U35G, G36A, A37G, G38A, A39G, C42U, U44A, A45U, U46C
B7: target 1 insA 3' of 19,insA 3' of 5 (mixed)
RNA 1: B1 RNA 1
RNA 2: B2 RNA 2 with U35A, C42U, U44A, A45U, U46C, C48G, G49A
B8: target 1 del7,del19 (mixed)
RNA 1: B1 RNA 1
RNA 2: GGGAAUGGAUCCACAUCUACGAAUUCGUACCAAGAGAGGUUAUCGCUCACCGAGAUCGGAAGAGCACACGU
B9: target 1 A9G,A18C (mixed)
RNA 1: B1 RNA 1
RNA 2: B1 RNA 2 with A34C, U35G, A43G, G49U
B10: target 1 insG 3' of 20,insA 3' of 13 (mixed)
RNA 1: B1 RNA 1
RNA 2: B2 RNA 2 with U33G, A34U, U35A, G41A, C42G
B11: target 1 U8G,U11G (mixed)
RNA 1: B1 RNA 1
RNA 2: B1 RNA 2 with U35G, U41G, U44G, G49U
B12: target 1 U10C,C21U (mixed)
RNA 1: B1 RNA 1
RNA 2: B1 RNA 2 with C31U, U35G, U42C, G49U
B13: target 1 C6U,A9C (mixed)
RNA 1: B1 RNA 1
RNA 2: B1 RNA 2 with U35G, A43C, C46U, G49U
B14: target 1 insC 3' of 17,insC 3' of 5 (mixed)
RNA 1: B1 RNA 1
RNA 2: B2 RNA 2 with U35G, G36C, C42U, U44A, A45U, U46C, C48G, G49C
B15: target 1 insA 3' of 17,insA 3' of 12 (mixed)
RNA 1: B1 RNA 1
RNA 2: B2 RNA 2 with U35G, G36A, C42A
B16: target 1 insC 3' of 11,insG 3' of 4 (mixed)
RNA 1: B1 RNA 1
RNA 2: GGGAAUGGAUCCACAUCUACGAAUUCGUACCAUAGAGAGGUCUAUCCGCGUCACCGAGAUCGGAAGAGCACACGU
B17: target 1 G5C,C6U (mixed)
RNA 1: B1 RNA 1
RNA 2: B1 RNA 2 with U35G, C46U, G47C, G49U
B18: target 1 insA 3' of 12,insA 3' of 8 (mixed)
RNA 1: B1 RNA 1
RNA 2: B16 RNA 2 with U41A, C42U, C46A, G48C, C49G, G50C
B19: target 1 C6G,C21A (mixed)
RNA 1: B1 RNA 1
RNA 2: B1 RNA 2 with C31A, U35G, C46G, G49U
B20: target 1 U3A,C21U (mixed)
RNA 1: B1 RNA 1
RNA 2: B1 RNA 2 with C31U, U35G, G49A
B21: target 1 insC 3' of 15,insG 3' of 14 (mixed)
RNA 1: B1 RNA 1
RNA 2: B2 RNA 2 with U35G, G36A, A37G, G38C, C42G
B22: target 1 G5U,A16U (mixed)
RNA 1: B1 RNA 1
RNA 2: B1 RNA 2 with U35G, A36U, G47U, G49U
B23: target 1 insC 3' of 22,insC 3' of 3 (mixed)
RNA 1: B1 RNA 1
RNA 2: GGGAAUGGAUCCACAUCUACGAAUUCGUACCCAUAGAGAGGUUAUCCGCUCCACCGAGAUCGGAAGAGCACACGU
B24: target 1 insU 3' of 20,insC 3' of 8 (mixed)
RNA 1: B1 RNA 1
RNA 2: B2 RNA 2 with A34U, U35A, C42U, U44A, A45U, U46C
B25: target 1 insA 3' of 15,insA 3' of 11 (mixed)
RNA 1: B1 RNA 1
RNA 2: B2 RNA 2 with U35G, G36A, A37G, G38A, C42U, U43A
B26: target 1 insG 3' of 22,insC 3' of 8 (mixed)
RNA 1: B1 RNA 1
RNA 2: B23 RNA 2 with C31G, G48C, C49G, U50C, C51U
B27: target 1 insC 3' of 19,insC 3' of 8 (mixed)
RNA 1: B1 RNA 1
RNA 2: B2 RNA 2 with A34C, U35A, C42U, U44A, A45U, U46C
B28: target 1 insU 3' of 22,insA 3' of 11 (mixed)
RNA 1: B1 RNA 1
RNA 2: B2 RNA 2 with C31U, A32C, U33A, A34U, U35A, C42U, U43A
B29: target 1 insG 3' of 7,insG 3' of 3 (mixed)
RNA 1: B1 RNA 1
RNA 2: B16 RNA 2 with C42U, U43A, A44U, U45C, C46G, G50U, U51G
B30: target 1 insC 3' of 22,insG 3' of 9 (mixed)
RNA 1: B1 RNA 1
RNA 2: B23 RNA 2 with U45G, C46U, G48C, C49G, U50C, C51U
B31: target 1 C2G,U19G (mixed)
RNA 1: B1 RNA 1
RNA 2: B1 RNA 2 with U33G, U35G, G49U, C50G
B32: target 1 insC 3' of 13,insU 3' of 9 (mixed)
RNA 1: B1 RNA 1
RNA 2: B16 RNA 2 with G40C, U41G, C42U, C46U, G48C, C49G, G50C
B33: target 1 U3A,U10C (mixed)
RNA 1: B1 RNA 1
RNA 2: B1 RNA 2 with U35G, U42C, G49A

Target: T1, EsCas13d, nuclease-dead
Experiment: crRNA (strand 1, pre-loaded); Mg2+; 40 mM Tris-HCl pH 7.5, 150 mM NaCl, 6 mM MgCl2, 1 mM DTT, 0.1% Tween-20, 0.2 mg/ml BSA; 25 C; 10 min per concentration, then washed
Conditions: tags: His6-TwinStrep-SUMO cleaved; N-terminal SNAP kept (SNAP-Surface 488); label: 3' end held by stalled T7 RNA polymerase

Row | Binder | Kd [nM]
1 | B1 | 20.8 ± 1.6
2 | B2 | ~90
3 | B3 | 13.9 ± 1.6
4 | B4 | ~80
5 | B5 | 10.4 ± 0.7
6 | B6 | 41 ± 5
7 | B7 | 16 ± 1.2
8 | B8 | 52 ± 6
9 | B9 | 64 ± 7
10 | B10 | 32 ± 8
11 | B11 | 18.9 ± 0.7
12 | B12 | 8.5 ± 0.4
13 | B13 | 33.1 ± 1.9
14 | B14 | 61 ± 6
15 | B15 | 42 ± 8
16 | B16 | 22.7 ± 1.2
17 | B17 | 11.6 ± 0.4

Row | Binder | Kd [nM]
18 | B18 | 37 ± 3.3
19 | B19 | 24.3 ± 1.5
20 | B20 | 19 ± 6
21 | B21 | 22.7 ± 1.8
22 | B22 | 66 ± 10
23 | B23 | 15.6 ± 1.3
24 | B24 | 19.1 ± 1
25 | B25 | 14.8 ± 0.8
26 | B26 | ~90
27 | B27 | 52 ± 5
28 | B28 | 66 ± 15
29 | B29 | 5.41 ± 0.21
30 | B30 | 33 ± 16
31 | B31 | 38 ± 4
32 | B32 | 10 ± 0.5
33 | B33 | 19.7 ± 2
